Reference: patent US20150307627A1 (BAC IP B V, published 2015)

Tests used:
[1] = target: T1, Human IgG; assay: method not given
T1 construct: also called HuIgG; human IgG-Fc domains
Procedure: (§1) Binding affinity constants of anti IgG-Fc VHH fragments were determined using surface plasmon resonance analysis (SPR) on a BiaCore 3000. For this purpose, purified VHH fragments were immobilised onto the surface of a CM5 sensor chip and subsequently incubated with different concentrations of purified IgG antibodies in HBS-EP buffer. Binding was allowed for 3 minutes at 30 μl/min followed by a dissociation step of 15 minutes at 30 μl/min Binding curves were fitted according to a 1:1 Langmuir binding model using Biacore software.

[2] = target: T1, Human IgG; assay: affinity chromatography, VHH on NHS-Sepharose, 150 cm/h
Procedure: The dynamic binding capacity (DBC) of the IgG-Fc domain binding VHH fragments immobilized onto NHS sepharose was tested. 10 ml of 1.0 mg/ml human IgG in PBS pH 7.4 was loaded on a 400 μl column with a linear flow of 150 cm/h. After the washing with 10 column volumes PBS pH 7.4, the column was eluted with 0.1 M glycine buffer pH 3.0. Based on integration of the OD280 signal of the flow through and elution peak, the dynamic binding capacity of the column was calculated (Table 11).

[3] = target: T2, HuIgG3 (human, UniProt P01860-1 1-377); assay: SPR, VHH immobilised, 1:1 Langmuir fit
T2 construct: Purified human IgG of subclass 3; also called Human-IgG3
Procedure: as §1

[4] = target: T3, HuIgG1 (human, UniProt P01857-1 1-330 = IgG part); assay: SPR, VHH immobilised, 1:1 Langmuir fit
T3 construct: Purified human IgG of subclass 1; also called Human-IgG1
Procedure: as §1

[5] = target: T4, HuIgG2 (human, UniProt P01859-1 1-326 = IgG part); assay: SPR, VHH immobilised, 1:1 Langmuir fit
T4 construct: Purified human IgG of subclass 2; also called Human-IgG2
Procedure: as §1

[6] = target: T1, Human IgG; assay: SPR, VHH immobilised, 1:1 Langmuir fit
Procedure: as §1

[7] = target: T5, HuIgG4 (human, UniProt P01861-1 1-327 = IgG part); assay: SPR, VHH immobilised, 1:1 Langmuir fit
T5 construct: Purified human IgG of subclass 4; also called Human-IgG4
Procedure: as §1

[8] = target: T6, Bovine IgG; assay: SPR, VHH immobilised, IgG 50 µg/ml
T6 construct: also called IgG-Fc from bovine
Procedure: (§2) Broad binding reactivity of VHH fragment IgG-Fc-16 was determined using surface plasmon resonance analysis (SPR) on a BiaCore 3000. For this purpose, purified VHH fragment IgG-Fc-16 was immobilised onto the surface of a CM5 sensor chip and subsequently incubated with purified IgG antibodies (50 μg/ml) from different species in HBS-EP buffer. Binding was allowed for 1 minute at 5 μl/min followed by a dissociation step of 2.5 minutes at 5 μl/min. Binding signals (Resonance Units) were compared to background signals measured with HBS-EP buffer only. For comparison, the relative reactivity of Protein A and G towards different IgG species is also given.

[9] = target: T7, Mouse IgG; assay: SPR, VHH immobilised, IgG 50 µg/ml
T7 construct: also called IgG-Fc from mouse
Procedure: as §2

[10] = target: Bovine IgG, Fab fragment; assay: SPR, VHH immobilised, IgG 50 µg/ml
Procedure: as §2

[11] = target: Bovine IgG, Fc fragment; assay: SPR, VHH immobilised, IgG 50 µg/ml
Procedure: as §2

[12] = target: Mouse IgG 1 (mouse, UniProt P01868 1-324 = IgG part); assay: SPR, VHH immobilised, IgG 50 µg/ml
Procedure: as §2

[13] = target: T8, Cat IgG; assay: SPR, VHH immobilised, IgG 50 µg/ml
T8 construct: also called IgG-Fc from cat
Procedure: as §2

[14] = target: T2, HuIgG3; assay: SPR, VHH immobilised, IgG 50 µg/ml
Procedure: as §2

[15] = target: Newborn Calf IgG; assay: SPR, VHH immobilised, IgG 50 µg/ml
Procedure: as §2

[16] = target: Mouse IgG2a (mouse, UniProt P01863 1-330 = IgG part); assay: SPR, VHH immobilised, IgG 50 µg/ml
Procedure: as §2

[17] = target: T3, HuIgG1; assay: SPR, VHH immobilised, IgG 50 µg/ml
Procedure: as §2

[18] = target: T9, Goat IgG; assay: SPR, VHH immobilised, IgG 50 µg/ml
T9 construct: also called IgG-Fc from goat
Procedure: as §2

[19] = target: T10, Sheep IgG; assay: SPR, VHH immobilised, IgG 50 µg/ml
T10 construct: also called IgG-Fc from sheep
Procedure: as §2

[20] = target: Rabbit IgG; assay: SPR, VHH immobilised, IgG 50 µg/ml
Procedure: as §2

[21] = target: T11, Guinea pig IgG; assay: SPR, VHH immobilised, IgG 50 µg/ml
T11 construct: also called Guinea IgG; IgG-Fc from guinea pig
Procedure: as §2

[22] = target: Foetal Calf IgG; assay: SPR, VHH immobilised, IgG 50 µg/ml
Procedure: as §2

[23] = target: Rat IgG2a (rat, UniProt P20760 1-322); assay: SPR, VHH immobilised, IgG 50 µg/ml
Procedure: as §2

[24] = target: T4, HuIgG2; assay: SPR, VHH immobilised, IgG 50 µg/ml
Procedure: as §2

[25] = target: Swine IgG; assay: SPR, VHH immobilised, IgG 50 µg/ml
Procedure: as §2

[26] = target: T1, Human IgG; assay: SPR, VHH immobilised, IgG 50 µg/ml
Procedure: as §2

[27] = target: Rat IgG2c (rat, UniProt P20762 1-329); assay: SPR, VHH immobilised, IgG 50 µg/ml
Procedure: as §2

[28] = target: T5, HuIgG4; assay: SPR, VHH immobilised, IgG 50 µg/ml
Procedure: as §2

[29] = target: Human IgG, Fab fragment; assay: SPR, VHH immobilised, IgG 50 µg/ml
Procedure: as §2

[30] = target: Donkey IgG; assay: SPR, VHH immobilised, IgG 50 µg/ml
Procedure: as §2

[31] = target: T12, Dog IgG; assay: SPR, VHH immobilised, IgG 50 µg/ml
T12 construct: also called IgG-Fc from dog
Procedure: as §2

[32] = target: Rat IgG1a; assay: SPR, VHH immobilised, IgG 50 µg/ml
Procedure: as §2

[33] = target: Horse IgG; assay: SPR, VHH immobilised, IgG 50 µg/ml
Procedure: as §2

[34] = target: Human IgG, Fc fragment; assay: SPR, VHH immobilised, IgG 50 µg/ml
Procedure: as §2

[35] = target: T13, Syrian Hamster IgG; assay: SPR, VHH immobilised, IgG 50 µg/ml
T13 construct: also called IgG-Fc from syrian hamster
Procedure: as §2

[36] = target: T14, Rat IgG; assay: SPR, VHH immobilised, IgG 50 µg/ml
T14 construct: also called IgG-Fc from rat
Procedure: as §2

[37] = target: Rat IgG2b (rat, UniProt P20761 1-333); assay: SPR, VHH immobilised, IgG 50 µg/ml
Procedure: as §2

[38] = target: T6, Bovine IgG; assay: SPR, VHH immobilised, 1:1 Langmuir fit
Procedure: as §1

[39] = target: T7, Mouse IgG; assay: SPR, VHH immobilised, 1:1 Langmuir fit
Procedure: as §1

T5 sequence (P01861 other isoform, or with tags, fused parts or gaps): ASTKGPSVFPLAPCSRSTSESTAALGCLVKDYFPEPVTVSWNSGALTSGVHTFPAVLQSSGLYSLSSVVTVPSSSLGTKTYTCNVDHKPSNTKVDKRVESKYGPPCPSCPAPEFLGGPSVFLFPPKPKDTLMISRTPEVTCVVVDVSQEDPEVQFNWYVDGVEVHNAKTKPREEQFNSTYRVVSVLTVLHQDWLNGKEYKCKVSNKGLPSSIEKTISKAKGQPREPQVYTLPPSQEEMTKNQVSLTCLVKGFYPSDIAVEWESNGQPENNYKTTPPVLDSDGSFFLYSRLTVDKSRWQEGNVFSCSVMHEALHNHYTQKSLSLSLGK
T4 sequence (P01859 other isoform, or with tags, fused parts or gaps): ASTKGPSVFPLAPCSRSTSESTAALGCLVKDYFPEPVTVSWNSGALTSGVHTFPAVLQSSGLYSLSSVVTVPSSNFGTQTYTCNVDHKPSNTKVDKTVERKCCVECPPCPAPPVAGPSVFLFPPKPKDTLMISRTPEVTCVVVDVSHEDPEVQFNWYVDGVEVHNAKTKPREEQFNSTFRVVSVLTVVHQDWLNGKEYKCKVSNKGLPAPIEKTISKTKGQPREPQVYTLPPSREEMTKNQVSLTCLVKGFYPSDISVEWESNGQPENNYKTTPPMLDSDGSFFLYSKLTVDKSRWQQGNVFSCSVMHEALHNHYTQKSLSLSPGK
T3 sequence (P01857 other isoform, or with tags, fused parts or gaps): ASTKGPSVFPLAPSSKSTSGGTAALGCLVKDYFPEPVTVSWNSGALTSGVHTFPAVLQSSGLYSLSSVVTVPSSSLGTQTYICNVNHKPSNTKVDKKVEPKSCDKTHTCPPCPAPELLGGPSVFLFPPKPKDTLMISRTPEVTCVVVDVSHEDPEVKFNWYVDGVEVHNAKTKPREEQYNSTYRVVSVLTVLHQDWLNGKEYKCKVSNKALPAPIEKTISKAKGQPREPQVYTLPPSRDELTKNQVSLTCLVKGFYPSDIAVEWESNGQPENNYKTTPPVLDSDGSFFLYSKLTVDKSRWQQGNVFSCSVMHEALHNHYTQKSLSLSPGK
T2 sequence (P01860 other isoform, or with tags, fused parts or gaps): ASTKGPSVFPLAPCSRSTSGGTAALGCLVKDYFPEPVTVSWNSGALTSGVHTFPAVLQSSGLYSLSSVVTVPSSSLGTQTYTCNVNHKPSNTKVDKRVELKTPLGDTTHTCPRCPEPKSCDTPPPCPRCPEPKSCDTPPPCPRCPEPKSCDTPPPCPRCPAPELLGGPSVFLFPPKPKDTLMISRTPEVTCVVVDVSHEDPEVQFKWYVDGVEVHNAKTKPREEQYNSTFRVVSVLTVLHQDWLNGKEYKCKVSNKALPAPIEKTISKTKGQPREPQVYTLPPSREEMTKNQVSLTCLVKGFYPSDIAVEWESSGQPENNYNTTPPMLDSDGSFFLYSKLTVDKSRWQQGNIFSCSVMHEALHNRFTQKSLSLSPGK
Chain of Rat IgG2a (P20760 whole entry): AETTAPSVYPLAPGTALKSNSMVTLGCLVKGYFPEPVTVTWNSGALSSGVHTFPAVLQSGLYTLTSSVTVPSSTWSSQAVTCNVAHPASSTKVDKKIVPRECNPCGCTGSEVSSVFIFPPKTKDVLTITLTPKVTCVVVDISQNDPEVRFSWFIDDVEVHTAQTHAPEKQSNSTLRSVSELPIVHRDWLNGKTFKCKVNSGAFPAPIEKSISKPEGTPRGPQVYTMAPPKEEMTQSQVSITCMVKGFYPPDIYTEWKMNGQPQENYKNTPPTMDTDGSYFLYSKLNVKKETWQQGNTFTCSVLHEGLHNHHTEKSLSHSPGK
Chain of Mouse IgG2a (P01863 whole entry): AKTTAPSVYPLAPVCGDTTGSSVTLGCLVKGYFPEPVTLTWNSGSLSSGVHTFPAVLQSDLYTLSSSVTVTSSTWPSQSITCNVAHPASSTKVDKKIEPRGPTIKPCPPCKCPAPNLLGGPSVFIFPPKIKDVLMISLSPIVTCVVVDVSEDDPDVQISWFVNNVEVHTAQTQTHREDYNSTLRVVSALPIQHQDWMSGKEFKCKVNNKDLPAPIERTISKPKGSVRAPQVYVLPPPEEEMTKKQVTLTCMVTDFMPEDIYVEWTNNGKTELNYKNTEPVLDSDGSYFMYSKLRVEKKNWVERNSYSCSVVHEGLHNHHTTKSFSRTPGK
Chain of Rat IgG2b (P20761 whole entry): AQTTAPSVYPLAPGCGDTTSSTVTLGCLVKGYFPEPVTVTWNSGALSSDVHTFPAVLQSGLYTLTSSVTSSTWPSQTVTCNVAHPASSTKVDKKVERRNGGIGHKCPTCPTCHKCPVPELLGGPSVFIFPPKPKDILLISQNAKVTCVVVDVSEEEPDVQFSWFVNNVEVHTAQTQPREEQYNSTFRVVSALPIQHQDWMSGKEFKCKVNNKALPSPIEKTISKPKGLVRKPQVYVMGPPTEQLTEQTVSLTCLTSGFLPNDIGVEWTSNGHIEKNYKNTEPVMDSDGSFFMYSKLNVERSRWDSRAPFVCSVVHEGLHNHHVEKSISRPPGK
Chain of Rat IgG2c (P20762 whole entry): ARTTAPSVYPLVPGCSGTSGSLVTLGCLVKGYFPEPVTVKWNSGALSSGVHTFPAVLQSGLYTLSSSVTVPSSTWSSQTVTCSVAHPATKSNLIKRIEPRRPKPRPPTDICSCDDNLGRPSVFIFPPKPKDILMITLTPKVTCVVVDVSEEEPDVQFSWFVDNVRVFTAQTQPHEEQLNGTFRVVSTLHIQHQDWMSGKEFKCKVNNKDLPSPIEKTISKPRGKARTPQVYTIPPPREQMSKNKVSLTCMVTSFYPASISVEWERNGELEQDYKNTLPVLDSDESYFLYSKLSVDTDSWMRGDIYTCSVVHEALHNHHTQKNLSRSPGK

B1: IgG-Fc-10 (VHH)
VHH: QVQLQESGGGLVQAGDSLRISCRASGLTVNDLYMGWFRQAPGKEREFVGRVTPGDNTDYTYYVDSVKGRFTISRDSAKNTVYLQMNSLKLEDTAVYLCAGRRFGSSEWDYWGQGTQVTVSS
Ka [1]: ≥ 4e+09 M⁻¹
Dynamic binding capacity [2]: 16.7 mg human IgG/ml matrix
Ka [3]: 1.11e+08 M⁻¹
Kd [3]: 8.99 nM
koff [3]: 0.0014 s⁻¹
kon [3]: 156000 M⁻¹ s⁻¹
Ka [4]: 3.81e+08 M⁻¹
Kd [4]: 2.62 nM
koff [4]: 0.000654 s⁻¹
kon [4]: 249000 M⁻¹ s⁻¹
Ka [5]: 1.37e+08 M⁻¹
Kd [5]: 7.29 nM
koff [5]: 0.000889 s⁻¹
kon [5]: 122000 M⁻¹ s⁻¹
Ka [6]: 3.07e+08 M⁻¹
Kd [6]: 3.25 nM
koff [6]: 0.00129 s⁻¹
kon [6]: 396000 M⁻¹ s⁻¹
Ka [7]: 8.16e+07 M⁻¹
Kd [7]: 12.3 nM
koff [7]: 0.00123 s⁻¹
kon [7]: 100000 M⁻¹ s⁻¹

B2: IgG-Fc-01 (VHH)
VHH: QVQLQESGGGLVQPGGSLRLSCAASGGTSIRIGSINALAWYRQALGNQRELVAAVTEGGSTNYADFVKGRFTISRDNAQNMMYLQMNSLKPEDTAVYYCNADKVLYSRGGYYSVANDLWGQGTQVTVSS
notes: also called IgG-Fc-1
Dynamic binding capacity [2]: 18.2 mg human IgG/ml matrix
Ka [3]: 2.09e+07 M⁻¹
Kd [3]: 47.8 nM
koff [3]: 0.000272 s⁻¹
kon [3]: 5690 M⁻¹ s⁻¹
Ka [4]: 1.74e+09 M⁻¹
Kd [4]: 0.575 nM
koff [4]: 0.000208 s⁻¹
kon [4]: 361000 M⁻¹ s⁻¹
Ka [5]: 5.76e+08 M⁻¹
Kd [5]: 1.73 nM
koff [5]: 0.000212 s⁻¹
kon [5]: 122000 M⁻¹ s⁻¹
Ka [6]: 4.67e+08 M⁻¹
Kd [6]: 2.14 nM
koff [6]: 0.000176 s⁻¹
kon [6]: 82400 M⁻¹ s⁻¹
Ka [7]: 3.32e+09 M⁻¹
Kd [7]: 0.302 nM
koff [7]: 5.91e-05 s⁻¹
kon [7]: 196000 M⁻¹ s⁻¹

B3: IgG-Fc-16 (VHH)
VHH: QVQLQESGGGLVQAGGSLRLSCAASGRAVGNYIIGWFRQAPGKEREFVATTTRDGGSTFYADSVKGRFTISRDNAKNTVNLQMNSLEPEDTAVYYCAAKSWSVPLRPTSADFDSWGQGTQVTVSS
notes: also called VHH fragment IgG-Fc-16
Binding signal (RU) [8]: 309 RU
Binding signal (RU) [9]: 468 RU
Binding signal (RU) [10]: -1.7 RU
Binding signal (RU) [11]: 172 RU
Binding signal (RU) [12]: 1610 RU
Binding signal (RU) [13]: 410 RU
Binding signal (RU) [14]: 499 RU
Binding signal (RU) [15]: 239 RU
Binding signal (RU) [16]: 427 RU
Binding signal (RU) [17]: 1570 RU
Binding signal (RU) [18]: 257 RU
Binding signal (RU) [19]: 846 RU
Binding signal (RU) [20]: 800 RU
Binding signal (RU) [21]: 577 RU
Binding signal (RU) [22]: 260 RU
Binding signal (RU) [23]: 444 RU
Binding signal (RU) [24]: 795 RU
Binding signal (RU) [25]: 811 RU
Binding signal (RU) [26]: 1110 RU
Binding signal (RU) [27]: 2130 RU
Binding signal (RU) [28]: 710 RU
Binding signal (RU) [29]: -2.8 RU
Binding signal (RU) [30]: 638 RU
Binding signal (RU) [31]: 490 RU
Binding signal (RU) [32]: 431 RU
Binding signal (RU) [33]: 430 RU
Binding signal (RU) [34]: 807 RU
Binding signal (RU) [35]: 670 RU
Binding signal (RU) [36]: 108 RU
Binding signal (RU) [37]: 512 RU
Dynamic binding capacity [2]: 11.5 mg human IgG/ml matrix
Ka [38]: 3.59e+08 M⁻¹
Kd [38]: 2.79 nM
koff [38]: 0.000386 s⁻¹
kon [38]: 138000 M⁻¹ s⁻¹
Ka [39]: 1.19e+08 M⁻¹
Kd [39]: 8.41 nM
koff [39]: 0.000198 s⁻¹
kon [39]: 23500 M⁻¹ s⁻¹
Ka [3]: 4.69e+07 M⁻¹
Kd [3]: 21.3 nM
koff [3]: 0.000849 s⁻¹
kon [3]: 39800 M⁻¹ s⁻¹
Ka [4]: 1.47e+08 M⁻¹
Kd [4]: 6.81 nM
koff [4]: 0.000211 s⁻¹
kon [4]: 31000 M⁻¹ s⁻¹
Ka [5]: 6.17e+07 M⁻¹
Kd [5]: 16.2 nM
koff [5]: 0.000355 s⁻¹
kon [5]: 21900 M⁻¹ s⁻¹
Ka [6]: 7.65e+07 M⁻¹
Kd [6]: 13.1 nM
koff [6]: 0.000462 s⁻¹
kon [6]: 35300 M⁻¹ s⁻¹
Ka [7]: 5.89e+08 M⁻¹
Kd [7]: 1.7 nM
koff [7]: 0.000107 s⁻¹
kon [7]: 62900 M⁻¹ s⁻¹
